# Measured values taken from patent US20210292396A1.
# B1: ePGT121.18.17 (ePGT121.18.H17 VH and ePGT121.17.L1 VL) (antibody, V domains shown)
# VH: QMQLQESGPGLVKPGETLSLTCSVSGASISSSYWSWLRETPGKGLEWIGYTHHSGDTNYAPSLKSRVTIGLDPSKNQVSLSLTSVTAADTAVYYCARTLHGRRIYGVVAFNEYYTYFYWPTWGKGTQVTVSS
# VL: SDISVAPGETVRITCGGESIGSRAVQWYQHRPGQAPRLIIYNNQDRPPGIPERFSGSPDIDFGTTATLTISNVEAGDEATYYCHIWDSRRPTNWELGPGTTLTVL
# Columns and labels:
# Assay in all cases: cell-based or functional assay
# [1] = target: 208-member cross-clade virus panel
# [2] = target: Env of HIV isolate 001428-2.42 (clade C) (HIV)
# [3] = target: Env of HIV isolate 0260.v5.c36 (clade A) (HIV)
# [4] = target: Env of HIV isolate 16936-2.21 (clade C) (HIV)
# [5] = target: Env of HIV isolate 263-8 (clade AG) (HIV)
# [6] = target: Env of HIV isolate 3817.v2.c59 (clade CD) (HIV)
# [7] = target: Env of HIV isolate 5768.04 (clade B) (HIV)
# [8] = target: Env of HIV isolate 620345.c1 (clade AE) (HIV)
# [9] = target: Env of HIV isolate 6545.v4.c1 (clade AC) (HIV)
# [10] = target: Env of HIV isolate 6631.v3.c10 (clade C) (HIV)
# [11] = target: Env of HIV isolate 96ZM651.02 (clade C) (HIV)
# [12] = target: Env of HIV isolate BG505.W6M.C2 (clade A) (HIV)
# [13] = target: Env of HIV isolate BL01.DG (clade B) (HIV)
# [14] = target: Env of HIV isolate BR025.9 (clade C) (HIV)
# [15] = target: Env of HIV isolate BR07.DG (clade B) (HIV)
# [16] = target: Env of HIV isolate BaL.26 (clade B) (HIV)
# [17] = target: Env of HIV isolate CAP210.E8 (clade C) (HIV)
# [18] = target: Env of HIV isolate CAP45.G3 (clade C) (HIV)
# [19] = target: Env of HIV isolate CH181.12 (clade BC) (HIV)
# [20] = target: Env of HIV isolate CNE57 (clade B) (HIV)
# [21] = target: Env of HIV isolate CNE58 (clade C in Table 7) (HIV)
# [22] = target: Env of HIV isolate CNE59 (clade AE) (HIV)
# [23] = target: Env of HIV isolate DJ263.8 (clade AG) (HIV)
# [24] = target: Env of HIV isolate DU422.01 (clade C) (HIV)
# [25] = target: Env of HIV isolate HO86.8 (clade B) (HIV)
# [26] = target: Env of HIV isolate MN.3 (clade B) (HIV)
# [27] = target: Env of HIV isolate Q23.17 (clade A) (HIV)
# [28] = target: Env of HIV isolate Q259.17 (clade A) (HIV)
# [29] = target: Env of HIV isolate T33-7 (clade AG) (HIV)
# [30] = target: Env of HIV isolate TRJO.58 (clade B) (HIV)
# [31] = target: Env of HIV isolate UG024.2 (clade D) (HIV)
# [32] = target: Env of HIV isolate ZA012.29 (clade C) (HIV)
# [33] = target: Env of HIV isolate ZM109.4 (clade C) (HIV)
# [34] = target: Env of HIV isolate ZM135.10a (clade C) (HIV)
# [35] = target: Env of HIV isolate ZM176.66 (clade C) (HIV)
# [36] = target: HIV Env of isolate 0013095-2.11 (HIV)
# [37] = target: HIV Env of isolate 0921.v2.c14 (HIV)
# [38] = target: HIV Env of isolate 6322.v4.c1 (HIV)
# [39] = target: HIV Env of isolate CAP256.206.C9 (HIV)
# [40] = target: HIV Env of isolate CAP45.G3 (HIV)
# [41] = target: HIV Env of isolate CNE15 (HIV)
# [42] = target: HIV Env of isolate CNE20 (HIV)
# [43] = target: HIV Env of isolate ZA012.29 (HIV)
binder,measurement,setting,value
B1,"% vs Neutralized, IC50 < 0.01 ug/ml",[1],40%
same,"% vs Neutralized, IC50 < 0.1 ug/ml",[1],61%
same,"% vs Neutralized, IC50 < 1.0 ug/ml",[1],69%
same,"% vs Neutralized, IC50 < 10 ug/ml",[1],74%
same,"% vs Neutralized, IC50 < 50 ug/ml",[1],76%
same,"% vs Neutralized, IC80 < 0.01 ug/ml",[1],14.4%
same,"% vs Neutralized, IC80 < 0.1 ug/ml",[1],53.4%
same,"% vs Neutralized, IC80 < 1.0 ug/ml",[1],63.5%
same,"% vs Neutralized, IC80 < 10 ug/ml",[1],67.8%
same,"% vs Neutralized, IC80 < 50 ug/ml",[1],70.7%
same,Geometric Mean (IC50),[1],0.0202 µg/mL
same,Geometric Mean IC80,[1],0.0443 µg/mL
same,Median IC50,[1],0.009 µg/mL
same,Median IC80,[1],0.02 µg/mL
same,"Total VS Neutralized, IC50 < 0.01 ug/ml (viruses of 208)",[1],83
same,"Total VS Neutralized, IC50 < 0.1 ug/ml (viruses of 208)",[1],126
same,"Total VS Neutralized, IC50 < 1.0 ug/ml (viruses of 208)",[1],143
same,"Total VS Neutralized, IC50 < 10 ug/ml (viruses of 208)",[1],154
same,"Total VS Neutralized, IC50 < 50 ug/ml (viruses of 208)",[1],158
same,"Total VS Neutralized, IC80 < 0.01 ug/ml (viruses of 208)",[1],30
same,"Total VS Neutralized, IC80 < 0.1 ug/ml (viruses of 208)",[1],111
same,"Total VS Neutralized, IC80 < 1.0 ug/ml (viruses of 208)",[1],132
same,"Total VS Neutralized, IC80 < 10 ug/ml (viruses of 208)",[1],141
same,"Total VS Neutralized, IC80 < 50 ug/ml (viruses of 208)",[1],147
same,"IC50, pseudovirus neutralization",[2],0.004 µg/mL
same,"IC50, pseudovirus neutralization",[3],0.009 µg/mL
same,"IC50, pseudovirus neutralization",[4],0.004 µg/mL
same,"IC50, pseudovirus neutralization",[5],0.02 µg/mL
same,"IC50, pseudovirus neutralization",[6],4.75 µg/mL
same,"IC50, pseudovirus neutralization",[7],0.029 µg/mL
same,"IC50, pseudovirus neutralization",[8],> 50 µg/mL
same,"IC50, pseudovirus neutralization",[9],> 50 µg/mL
same,"IC50, pseudovirus neutralization",[10],0.063 µg/mL
same,"IC50, pseudovirus neutralization",[11],0.003 µg/mL
same,"IC50, pseudovirus neutralization",[12],0.047 µg/mL
same,"IC50, pseudovirus neutralization",[13],1.51 µg/mL
same,"IC50, pseudovirus neutralization",[14],0.003 µg/mL
same,"IC50, pseudovirus neutralization",[15],0.008 µg/mL
same,"IC50, pseudovirus neutralization",[16],0.004 µg/mL
same,"IC50, pseudovirus neutralization",[17],0.124 µg/mL
same,"IC50, pseudovirus neutralization",[18],8.91 µg/mL
same,"IC50, pseudovirus neutralization",[19],0.004 µg/mL
same,"IC50, pseudovirus neutralization",[20],0.006 µg/mL
same,"IC50, pseudovirus neutralization",[21],0.053 µg/mL
same,"IC50, pseudovirus neutralization",[22],> 50 µg/mL
same,"IC50, pseudovirus neutralization",[23],0.014 µg/mL
same,"IC50, pseudovirus neutralization",[24],0.013 µg/mL
same,"IC50, pseudovirus neutralization",[25],> 50 µg/mL
same,"IC50, pseudovirus neutralization",[26],0.004 µg/mL
same,"IC50, pseudovirus neutralization",[27],0.006 µg/mL
same,"IC50, pseudovirus neutralization",[28],> 50 µg/mL
same,"IC50, pseudovirus neutralization",[29],> 50 µg/mL
same,"IC50, pseudovirus neutralization",[30],0.023 µg/mL
same,"IC50, pseudovirus neutralization",[31],0.429 µg/mL
same,"IC50, pseudovirus neutralization",[32],0.005 µg/mL
same,"IC50, pseudovirus neutralization",[33],8.44 µg/mL
same,"IC50, pseudovirus neutralization",[34],0.145 µg/mL
same,"IC50, pseudovirus neutralization",[35],0.122 µg/mL
same,"IC80, pseudovirus neutralization",[36],13.4 µg/mL
same,"IC80, pseudovirus neutralization",[37],3.48 µg/mL
same,"IC80, pseudovirus neutralization",[38],> 50 µg/mL
same,"IC80, pseudovirus neutralization",[39],0.009 µg/mL
same,"IC80, pseudovirus neutralization",[40],> 50 µg/mL
same,"IC80, pseudovirus neutralization",[41],> 50 µg/mL
same,"IC80, pseudovirus neutralization",[42],0.005 µg/mL
same,"IC80, pseudovirus neutralization",[43],0.014 µg/mL
